We go through 1 protein from publication PMC9297866.

By Km is commonly meant the substrate concentration at which the rate is half of its maximum.

Substrate in data set [1]: C=C(C)CCO[P@@](=O)(O)OP(=O)(O)O
In words: purified protein. The note with it: regular coupling; two-substrate reaction with DMAPP.

Substrate in data set [2]: CC(C)=CCOP(=O)(O)OP(=O)(O)O
In words: purified protein. The note with it: regular coupling; two-substrate reaction with IPP.

B1: neryl diphosphate synthase from Solanum lycopersicum (SlNPPS) (Solanum lycopersicum; N88H) (protein)
chain: SLNLQTEKLCYEDNDNDLDEELMPKHIALIMDGHRRWAKDKGLEVYEGHKHIIPKLKEICDISSKLGIQIITAFAFSTENWKRSKEEVDFLLQMFEEIYDEFSRSGVRVSIIGCKSDLPMTLQKCIALTEETTKGNKGLHLVIALNYGGYYDILQATKSIVNKAMNGLLDVEDINKNLFDQELESKCPNPDLLIRTGGEQRVSNFLLWQLAYTEFYFTNTLFPDFGEEDLKEAIMNFQQRHRRFGGHTY
As to B1, in data set [1], the Michaelis constant (Km) was 457 ± 91 µM and the kcat is 87±15×10^-3 s^-1. Besides, in data set [2], the Michaelis-Menten constant (Km) worked out at 391 ± 96 µM and the kcat was 87±15×10^-3 s^-1.
